Changes are numbered by the printed parent chain.
How the values were obtained:
Test in all cases: SPR; KD relative to WT C2;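 also: biacore SPR at 37 °C, anti-C2 mAbs captured on an anti-human IgG chip, alanine or serine C2 surface mutants tested, KD from 1:1 fit compared with wild-type C2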
human C2 T317A = biological target: T1, human C2 T317A (human, UniProt P06681 21-752)
T1 sequence: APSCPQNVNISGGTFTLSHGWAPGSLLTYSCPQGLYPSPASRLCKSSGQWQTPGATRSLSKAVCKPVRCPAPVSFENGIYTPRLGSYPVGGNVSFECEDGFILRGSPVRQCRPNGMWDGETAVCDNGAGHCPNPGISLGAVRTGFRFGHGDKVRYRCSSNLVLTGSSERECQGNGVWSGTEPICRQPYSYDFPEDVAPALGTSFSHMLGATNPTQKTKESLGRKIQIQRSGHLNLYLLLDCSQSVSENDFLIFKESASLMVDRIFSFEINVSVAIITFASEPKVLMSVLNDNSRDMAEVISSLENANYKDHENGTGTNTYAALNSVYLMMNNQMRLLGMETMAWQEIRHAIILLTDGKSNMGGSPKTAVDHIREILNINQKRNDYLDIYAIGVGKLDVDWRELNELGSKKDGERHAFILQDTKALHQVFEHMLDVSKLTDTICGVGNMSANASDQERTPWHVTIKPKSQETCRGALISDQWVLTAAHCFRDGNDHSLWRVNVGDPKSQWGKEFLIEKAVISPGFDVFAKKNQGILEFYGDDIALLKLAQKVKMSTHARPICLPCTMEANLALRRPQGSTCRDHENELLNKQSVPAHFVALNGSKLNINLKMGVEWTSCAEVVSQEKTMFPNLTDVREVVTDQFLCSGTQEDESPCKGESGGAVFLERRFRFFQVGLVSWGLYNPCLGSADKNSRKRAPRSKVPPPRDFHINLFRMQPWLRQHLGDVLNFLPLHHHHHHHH

human C2 N471A = biological target: T2, human C2 N471A (human, UniProt P06681 21-752)
T2 sequence: T1 sequence with A297T, N451A

human C2 R688A = biological target: T3, human C2 R688A (human, UniProt P06681 21-752)
T3 sequence: T1 sequence with A297T, R668A

human C2 A436S = biological target: T4, human C2 A436S (human, UniProt P06681 21-752)
T4 sequence: T1 sequence with A297T, A416S

B1: RF16-214 (antibody, V domains shown)
VH: EVQLLESGGGLVQPGGSLRLSCAASGFTFSWYQMMWVRQAPGKGLEWVSRIYPSGGGTAYADSVKGRFTISRDNSKNTLYLQMNSLRAEDTAVYYCARDAGYGDNWGQGTLVTVSS
VL: QSALTQPPSVSVSPGQTASITCSGDKLGEKYASWYQQKAGQSPVMVIYQDRKRPSGIPERFSGSNSGNTATLTISGTQAMDEADYYCQAWDTRAVVFGGGTKLTVLG
Which results are given for B1?
Fold diff (human C2 T317A): 1 fold; Fold diff (human C2 N471A): 1 fold; Fold diff (human C2 R688A): 3 fold; Fold diff (human C2 A436S): 1 fold

— US20220332804A1 (CSL INNOVATION, published 2022)
